According to patent US20220313789A1, “TARGETING MELANOCORTIN 3 RECEPTOR FOR TREATMENT/PREVENTION OF EATING, METABOLISM, AND/OR EMOTIONAL DISORDERS” (The Regents of the University of Michigan, priority 2019, published 2022):
“Also recorded” adds a separate entry of the source. Bridge positions count the residues as written; N and C are the ends. Square brackets hold non-standard residues; d marks the D form. Ends that are not written are not given here. d2Nal = N[C@H](Cc1ccc2ccccc2c1)C(=O)O; Ac6c = NC1(C(=O)O)CCCCC1; Nle = CCCC[C@H](N)C(=O)O

Experiments:
MC3R [1] = target: T1, MC3R (Homo sapiens, UniProt P41968); assay: Primary HTS antagonist assay / screen for MC3R antagonists
Source text: Primary HTS antagonist assay. […] (B): Positive and negative assay with kinetics of antagonist and agonist addition indicated. (C): Scatterplot of corrected and normalized data. Typical Z′ factors are above 0.5.

[2] = tested on: arcuate MC3R expressing neurons (hM3Dq); assay: DREADD (hM3Dq) activation of arcuate MC3R neurons by CNO; format: in vivo, mice
Source text: (§1) FIG. 2. Potent Bidirectional Regulation of Feeding by DREADD Activation of MC3R ARC neurons. (A) Representative images showing hM3Dq-mCherry (red), and cfos (green), in the arcuate nucleus of a mouse transduced with hM3Dq in arcuate MC3R expressing neurons following CNO or saline administration. Panels on right are an enlargement of the boxed sections. (B) Quantification of cfos expression in the arcuate nucleus following i.p. injections of saline or CNO (unpaired Student's t-test). […] (C) Acute feeding assays following DREADD mediated activation of arcuate MC3R neurons. Activation of MC3R neurons increased food intake at all times tested (2-way ANOVA with Bonferroni post-hoc test, n=10 mice). (D) Change in body weight following a single injection of CNO or saline. […] (E) Daily food intake in MC3R-Cre mice targeted with the inhibitory DREADD hM4Di in arcuate MC3R expressing neurons. […] (F) Change in body weight following long term CNO injections in hM4Di transfected and WT mice. […]
(§2) To evaluate the effects of DREADD mediated manipulation of ARC-MC3R neurons on feeding and body weight, mice were habituated to twice daily vehicle injections (i.p., saline; 200 ul). […] Food intake was measured twice daily (10 am and 6 pm) during chronic i.p. injection experiments. Body weight was measured daily at 10 am immediately prior to administering CNO/saline. […]

WT mice = assay: CNO administration to WT mice; format: in vivo
Experimental: FIG. 9. […] 24-hour food intake following i.p. injections of saline or CNO. […] Data represented as mean+/−s.em. Data analyzed with Student's paired t-test. n=15 mice
Given the enhanced expression of MC3R in the orexigenic arcuate AgRP neurons, relative to POMC and vGLUT2 neurons, experiments were conducted during development of embodiments herein to determine whether the dominant role of MC3R in the arcuate is to stimulate food intake and increase body weight. A previously characterized (Ref. 18; herein incorporated by reference in its entirety) MC3R-Cre mouse model in which Cre recombinase is exclusively expressed in cells containing MC3R was utilized for these experiments. To selectively activate the MC3R expressing neurons in the arcuate, a Cre dependent AAV viral vector expressing the DREADD (designer receptor exclusively activated by designer drugs) activator hM3Dq was stereotaxically targeted to the arcuate nucleus in MC3R-Cre mice (Refs 22-23; herein incorporated by reference in their entireties) (FIG. 2). It was validated that CNO administration activates ARC-MC3R neurons by measuring the neuronal activity marker, cfos, in response to CNO or saline injections. […] To determine if chronic activation of ARC-MC3R neurons is a viable strategy for increasing food intake and body weight CNO was administered twice daily for five consecutive days. […]

[3] = tested on: arcuate MC3R expressing neurons (hM4Di); assay: DREADD (hM4Di) inhibition of arcuate MC3R neurons by CNO; format: in vivo; conditions: hM4Di transfected mice vs WT control
Source text: as §1, §2

PVN MC4R neurons = assay: In vivo calcium imaging (GCAMP6s endomicroscopy) of PVN MC4R neurons; design: species or system mice; conditions: 10 mg/kg, i.p., vs baseline
Experimental: (left panels): Heat map displaying relative fluorescence, determined by endomicroscopy (Inscopix) of individual PVN MC4R neurons for five minutes of baseline recording, followed by five minutes of recording in response to a saline injection.
D: Change in florescence following i.p. administration of saline. […] F: Change in fluorescence following i.p. administration of the MC3R agonist C18 (10 mg/kg, i.p.). […] G: Heat plot showing real-time change in fluorescence activity in a representative mouse during baseline and following administration of C18. H: Average trace of the relative change in fluorescence before and after C18 administration. […] Data represents mean+/−s.e.m. for panels D-F. Panels D, F, and I analyzed with paired Student's t-test.

MC3R [4] = target: T2, MC3R (Mus musculus, UniProt P33033); assay: MC3R agonist feeding assays (food intake, body weight) in WT mice; format: in vivo; conditions: for Acute food intake: 10 mg/kg, i.p., ad libitum fed mice, relative to vehicle; for 24-hour food intake / body weight: single peripheral injection
T2 construct: from tissue; host or cells: living mice (C57/BL6J background), central nervous system / hypothalamus
Experimental: Clozapine-N-Oxide (CNO) was purchased from Enzo Life Sciences. On the day of experiments fresh stock CNO (1 mg/0.1 ml) was prepared in water. CNO was administered via i.p. injections (200 ul Saline; 1 mg/kg). […] (5 ug; 500 nl DMSO).
Behavioral assays were performed on ad libitum fed mice. Mice were single caged for at least one week prior to starting feeding assays. Feeding assays were performed during the light period.
For peripheral administration of MC3R agonist compounds, mice were first habituated to vehicle injections (i.p.; saline in 10% DMSO; 200 ul) for 2-4 consecutive days. Following habituation and consecutive days of stable food intake in response to vehicle injections, agonist compounds were administered (i.p.; 10 mg/kg; saline in 10% DMSO). Food intake was measured following drug or vehicle administration by carefully removing food from the food hopper and weighing on a scale. Cages were changed daily during acute feeding assays to prevent spillage of food from the food hopper.
For central administration of MC3R agonist compounds we first administered vehicle injections (500 nl DMSO) for 2-4 consecutive days to habituate mice to handling and injection. […] Body weight was measured daily immediately prior to injections.

MC4R [5] = target: T3, MC4R (Homo sapiens, UniProt P32245); conditions: cited from earlier work
MC3R [6] = target: T1, MC3R; conditions: cited from earlier work
MC3R [7] = target: T1, MC3R; conditions: cited from earlier work; remark: listed apart in the source
MC4R [8] = target: T3, MC4R; conditions: cited from earlier work; remark: listed apart in the source

T2 sequence (P33033 whole entry): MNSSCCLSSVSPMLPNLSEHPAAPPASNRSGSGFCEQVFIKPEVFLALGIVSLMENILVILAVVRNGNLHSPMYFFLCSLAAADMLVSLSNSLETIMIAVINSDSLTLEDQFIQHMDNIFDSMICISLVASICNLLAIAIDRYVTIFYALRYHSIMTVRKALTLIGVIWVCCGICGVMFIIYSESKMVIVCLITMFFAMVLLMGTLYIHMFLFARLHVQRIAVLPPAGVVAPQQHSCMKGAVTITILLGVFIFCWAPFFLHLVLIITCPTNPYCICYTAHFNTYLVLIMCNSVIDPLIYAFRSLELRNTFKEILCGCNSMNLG
T1 sequence (P41968 whole entry): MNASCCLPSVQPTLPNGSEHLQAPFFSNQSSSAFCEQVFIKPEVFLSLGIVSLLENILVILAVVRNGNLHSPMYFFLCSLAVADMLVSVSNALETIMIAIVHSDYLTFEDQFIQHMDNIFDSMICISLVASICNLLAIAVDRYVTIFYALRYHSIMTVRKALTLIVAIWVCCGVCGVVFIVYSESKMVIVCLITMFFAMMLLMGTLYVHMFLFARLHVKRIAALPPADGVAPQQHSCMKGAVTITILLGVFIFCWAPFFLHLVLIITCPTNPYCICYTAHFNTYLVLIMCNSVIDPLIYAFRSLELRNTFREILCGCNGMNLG
T3 sequence (P32245 whole entry): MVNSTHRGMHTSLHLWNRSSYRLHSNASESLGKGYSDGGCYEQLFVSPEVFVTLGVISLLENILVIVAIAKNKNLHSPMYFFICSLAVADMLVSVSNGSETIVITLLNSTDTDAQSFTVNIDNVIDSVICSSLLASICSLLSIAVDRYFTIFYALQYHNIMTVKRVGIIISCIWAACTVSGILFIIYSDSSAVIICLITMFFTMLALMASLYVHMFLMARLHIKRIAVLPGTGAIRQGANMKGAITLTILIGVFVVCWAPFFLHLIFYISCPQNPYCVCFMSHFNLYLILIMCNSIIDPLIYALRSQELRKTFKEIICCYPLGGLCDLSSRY

Polymyxin B
MC3R over MC4R selectivity (MC3R [1]): four-fold
potency as MC3R antagonist (MC3R [1]; screen of Vanderbilt chemical library): submicromolar potency

C[N+]1([O-])CCN(C2=Nc3cc(Cl)ccc3Nc3ccccc32)CC1 [CNO, Clozapine-N-Oxide]
cfos expression in the arcuate nucleus ([2]; i.p. CNO vs saline, hM3Dq in arcuate MC3R neurons): increased cfos expression in the arcuate nucleus; also recorded: Dense cfos expression was observed in ARC-MC3R neurons
Change in body weight ([2]; single injection of CNO or saline, hM3Dq mice, CNO 0.1 mg/kg): Body weight increased on the day following CNO injection, remaining elevated five days following CNO injection
body weight (WT mice; CNO injections, WT littermate control mice): No change in food intake or body weight; also recorded: No effect on BW
food intake (WT mice; i.p. CNO vs saline, WT / littermate control mice): No change in food intake or body weight; also recorded: No difference in food intake was detected
Change in body weight ([3]; long term / twice daily CNO): reduced BW in hM4Di transfected mice; also recorded: reduced both food intake and BW
Daily food intake ([3]; twice daily CNO): reduced daily food intake in hM4Di transfected mice; also recorded: reduced both food intake and BW

Ac-Nle-c[Asp-Pro-Pro-DNal(2′)-Arg-Trp-Lys]-NH2 (Ac-[Nle]DPP[d2Nal]RWK-NH2; lactam 2-8) [PG990]
Fluorescence activity of PVN MC4R neurons (PVN MC4R neurons): Fluorescence activity was suppressed
Acute food intake (MC3R [4]): acutely stimulated food intake
weight gain (MC3R [4]; 3 days of treatment): 8%
24 h food intake (MC3R [4]; PG990 series of peptides, route not given in the sentence): increases 24 h food intake
24-hour food intake (MC3R [4]): no significant difference
body weight (MC3R [4]): no significant difference

[Ac6c-His-DPhe-Arg-Trp-Asp]-NH2 ([Ac6c]H[dF]RWD-NH2; N-terminus assumed; SMILES N=C(N)NCCC[C@H](NC(=O)[C@@H](Cc1ccccc1)NC(=O)[C@H](Cc1c[nH]cn1)NC(=O)C1(N)CCCCC1)C(=O)N[C@@H](Cc1c[nH]c2ccccc12)C(=O)N[C@@H](CC(=O)O)C(N)=O) [FMMC-5, MC3R peptide agonist]
IC50 (MC4R [5]): 260 nM
IC50 (MC3R [6]): 10 nM
EC50 (MC3R [7]): 30 nM
EC50 (MC4R [8]): 280 nM
Acute food intake (MC3R [4]): acutely stimulated food intake
24-hour food intake (MC3R [4]): no significant difference
body weight (MC3R [4]): no significant difference
